Test results: US20040146507A1

What was measured:
rhesus CD18 (rhesus) [1] = molecular target: rhesus CD18 (rhesus) (UniProt H9Z8N5); assay: saturation binding, rhesus leukocytes, donor 2; Kd(app)
human CD18 (human) = human CD18 (human) (UniProt P05107); assay: cell-based or functional assay
rhesus CD18 (rhesus) [2] = molecular target: rhesus CD18 (rhesus) (UniProt H9Z8N5); assay: cell-based or functional assay
rhesus CD18 (rhesus) [3] = molecular target: rhesus CD18 (rhesus) (UniProt H9Z8N5); assay: saturation binding, rhesus leukocytes, donor 1; Kd(app)

human CD18 (human), sequence (P05107 23-769): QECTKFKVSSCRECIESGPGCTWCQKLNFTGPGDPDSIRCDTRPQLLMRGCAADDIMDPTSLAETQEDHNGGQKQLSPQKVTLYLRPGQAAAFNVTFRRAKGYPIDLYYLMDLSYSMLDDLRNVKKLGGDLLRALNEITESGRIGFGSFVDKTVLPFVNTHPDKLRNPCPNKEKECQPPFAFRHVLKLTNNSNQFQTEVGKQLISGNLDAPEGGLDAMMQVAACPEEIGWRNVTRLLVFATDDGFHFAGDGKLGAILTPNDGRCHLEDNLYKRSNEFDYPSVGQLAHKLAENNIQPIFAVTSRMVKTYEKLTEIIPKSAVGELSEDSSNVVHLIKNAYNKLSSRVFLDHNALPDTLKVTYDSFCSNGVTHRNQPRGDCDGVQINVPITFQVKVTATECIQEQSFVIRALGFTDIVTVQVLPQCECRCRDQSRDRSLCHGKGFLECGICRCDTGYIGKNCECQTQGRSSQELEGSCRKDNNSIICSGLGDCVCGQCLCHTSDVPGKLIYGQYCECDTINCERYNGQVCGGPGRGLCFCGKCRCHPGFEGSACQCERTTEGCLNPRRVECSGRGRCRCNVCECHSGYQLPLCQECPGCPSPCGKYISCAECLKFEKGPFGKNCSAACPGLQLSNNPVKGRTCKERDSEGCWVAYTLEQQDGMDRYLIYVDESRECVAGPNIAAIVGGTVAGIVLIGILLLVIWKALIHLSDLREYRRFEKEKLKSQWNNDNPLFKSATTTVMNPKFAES

Substance: murine anti-human CD18 antibody MHM23
- Kd (rhesus CD18 (rhesus) [1]): 4.5 nM
- IC50, blocking of cell adhesion, Rh/HuCD11a: HuK (human CD18 (human)): 1.4 nM
- IC50, blocking of cell adhesion, RhLy: HuICAM (rhesus CD18 (rhesus) [2]): 1.2 nM
- IC50, blocking of cell adhesion, RhLy: HuK (rhesus CD18 (rhesus) [2]): 1.6 nM
- Kd (rhesus CD18 (rhesus) [3]): 3.9 nM
